Results as given in the Immune Epitope Database (IEDB).
pKd: −log10 of the molar value.

How the values were obtained:
Experiment in all cases: IEDB peptide-MHC binding, purified MHC/competitive/radioactivity; filed as Kd, often an IC50 or EC50 that approximates it; ≥ and ≤ were set here for values at or beyond the usual limits of such assays
[1] = target: HLA-A*02:06; settings: source organism: Dengue virus 1 Singapore/S275/1990
[2] = target: HLA-A*03:01
[3] = target: HLA-A*11:01
[4] = target: HLA-A*31:01
[5] = target: HLA-A*33:01
[6] = target: HLA-A*68:01
[7] = source organism: Vaccinia virus WR
[8] = source organism: SARS coronavirus Tor2
[9] = source organism: Lassa virus Josiah
[10] = source organism: Lymphocytic choriomeningitis virus (strain Armstrong)
[11] = source organism: Mammarenavirus guanaritoense
[12] = source organism: Mammarenavirus juninense
[13] = source organism: Mammarenavirus brazilense

## LTLKGMSYV
[1]
  pKd: 8.15

## HLRVLFSIFY
[2]; [7]
  pKd: 7.43
[3]; [7]
  pKd: 5.30
[4]; [7]
  pKd: 6.00
[5]; [7]
  pKd: 5.73
[6]; [7]
  pKd: 5.68

## TMCTEETKR
[2]; [7]
  pKd: ≤ 4.11
[3]; [7]
  pKd: ≤ 4.11
[4]; [7]
  pKd: 5.53
[5]; [7]
  pKd: 4.91
[6]; [7]
  pKd: 6.92

## TLAVPYNMR
[2]; [8]
  pKd: 6.00
[3]; [8]
  pKd: 5.49
[4]; [8]
  pKd: 6.82
[5]; [8]
  pKd: 6.90
[6]; [8]
  pKd: 8.03

## SCPKPHRLNH
[2]; [9]
  pKd: ≤ 4.67
[3]; [9]
  pKd: ≤ 4.16
[4]; [9]
  pKd: ≤ 4.41
[5]; [9]
  pKd: ≤ 4.46
[6]; [9]
  pKd: ≤ 4.15

## SCQGSDDIR
[2]; [10]
  pKd: ≤ 4.11
[3]; [10]
  pKd: ≤ 4.11
[4]; [10]
  pKd: ≤ 4.47
[5]; [10]
  pKd: ≤ 4.29
[6]; [10]
  pKd: ≤ 4.66

## IAQSKGLYR
[2]; [8]
  pKd: 5.41
[3]; [8]
  pKd: 6.65
[4]; [8]
  pKd: 7.01
[5]; [8]
  pKd: 6.82
[6]; [8]
  pKd: 6.98

## CCNWLDRCRH
[2]; [11]
  pKd: ≤ 4.15
[3]; [11]
  pKd: ≤ 4.16
[4]; [11]
  pKd: 5.87
[5]; [11]
  pKd: 4.80
[6]; [11]
  pKd: ≤ 4.15

## VMANNVKKK
[2]; [7]
  pKd: 7.50
[3]; [7]
  pKd: 6.67
[4]; [7]
  pKd: 5.41
[5]; [7]
  pKd: ≤ 4.12
[6]; [7]
  pKd: 5.21

## KYIHCFRKPH
[2]; [12]
  pKd: ≤ 4.15
[3]; [12]
  pKd: ≤ 4.16
[4]; [12]
  pKd: 7.90
[5]; [12]
  pKd: ≤ 4.34
[6]; [12]
  pKd: ≤ 4.15

## CTDPSERVFK
[2]; [7]
  pKd: 6.27
[3]; [7]
  pKd: 8.00
[4]; [7]
  pKd: 5.53
[5]; [7]
  pKd: ≤ 4.26
[6]; [7]
  pKd: 7.25

## QSLCFLLTQK
[2]; [8]
  pKd: 8.21
[3]; [8]
  pKd: 7.97
[4]; [8]
  pKd: 7.27
[5]; [8]
  pKd: 5.83
[6]; [8]
  pKd: 7.20

## SVTLDFTKFH
[2]; [13]
  pKd: 5.12
[3]; [13]
  pKd: 5.15
[4]; [13]
  pKd: 5.00
[5]; [13]
  pKd: 5.03
[6]; [13]
  pKd: 4.74

## LLLPSTDVNK
[2]; [7]
  pKd: 7.39
[3]; [7]
  pKd: 7.42
[4]; [7]
  pKd: 5.52
[5]; [7]
  pKd: ≤ 4.15
[6]; [7]
  pKd: 5.53

## ESRDRKWLY
[2]; [7]
  pKd: ≤ 4.29
[3]; [7]
  pKd: 4.99
[4]; [7]
  pKd: ≤ 4.21
[5]; [7]
  pKd: 5.00
[6]; [7]
  pKd: 5.41

## VCEEFFHQK
[2]; [11]
  pKd: 4.94
[3]; [11]
  pKd: 6.21
[4]; [11]
  pKd: ≤ 4.65
[5]; [11]
  pKd: ≤ 4.11
[6]; [11]
  pKd: 5.23
